Experimental data reported in article doi:10.1101/2024.04.24.590896 (bioRxiv, 2024).

B1: U_SNAP (Sec20, aa 133-198; Use1, aa 174-239) (other)
chain: QTSSSITESLMGISRMMSQQVQQSEEAMQTLVSSSRTLLDANEEFKSMSGTIQLGRKLITKYNRREGLSVSPSNKLKSSDAYKKAWGNNQDGVVASQPARVVDEREQMAISGGFIRRVTNDQRHQGLQEKLAEEMLGLARSLKTNTLAAQSVIKKDNQTLSHSLKMADQNLEKLKLESERLEQHAQK
B2: syntaxin 18 SNARE domain (aa 229-312) (domain or fragment)
chain: EEIQMFEQENQRLIGEMNSLFDEVRQIEGKVVEISRLQEIFTEKVLQQETEIDSIHQLVVGATENIKEGNEDIREAIKNNAGFR
B3: Sec20 SNARE domain (aa 133-198) (domain or fragment)
chain: QTSSSITESLMGISRMMSQQVQQSEEAMQTLVSSSRTLLDANEEFKSMSGTIQLGRKLITKYNRRE
B4: Use1 SNARE domain (aa 174-239) (domain or fragment)
chain: QRHQGLQEKLAEEMLGLARSLKTNTLAAQSVIKKDNQTLSHSLKMADQNLEKLKLESERLEQHAQK

Key:
[1] = biological target: B2; test: native gel or EMSA + SEC
[2] = biological target: synaptobrevin 2 (aa 1-96) (Rattus norvegicus, UniProt P63045 1-96); test: native gel or EMSA
synaptobrevin 2 (aa 1-96), sequence (P63045 1-96): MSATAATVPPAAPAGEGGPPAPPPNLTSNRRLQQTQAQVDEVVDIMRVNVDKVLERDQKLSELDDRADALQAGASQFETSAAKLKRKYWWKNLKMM

[3] = biological target: B2; test: SEC
[4] = biological target: B3; test: SEC

Binder: B1
binding result [1]: binds

Binder: B2
binding result [2]: binds

Binder: B3
binding result [3]: binds

Binder: B4
binding result [3]: binds | binding result [4]: binds
